Test results published in doi:10.64898/2025.12.15.690641.

T1: CsubMADS1 (Coccomyxa subellipsoidea C-169, UniProt I0YWG3 1-102)
T1 sequence: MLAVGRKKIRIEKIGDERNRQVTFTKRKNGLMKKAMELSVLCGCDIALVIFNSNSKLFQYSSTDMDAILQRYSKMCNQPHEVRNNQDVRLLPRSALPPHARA

B1: CAB24 CArG probe (dsDNA)
DNA 1: AATTCATCGATCGTTTACAAAAAAAAGAAATATCGATCGG
DNA 2: CCGATCGATATTTCTTTTTTTTGTAAACGATCGATGAATT
B2: CAB8 CArG probe (dsDNA)
DNA 1: AATTCATCGATCGTTTACTTTTTTTAGAAATATCGATCGG
DNA 2: CCGATCGATATTTCTAAAAAAAGTAAACGATCGATGAATT

Target: T1, CsubMADS1
Test: EMSA

Binder	binding result
B1	binds
B2	binds
